Source: patent publication US20210163555

B1: His6-E6AP (protein)
chain: MEKLHQCYWKSGEPQSDDIEASRMKRAAAKHLIERYYHQLTEGCGNEACTNEFCASCPTFLRMDNNAAAIKALELYKINAKLCDPHPSKKGASSAYLENSKGAPNNSCSEIKMNKKGARIDFKDVTYLTEEKVYEILELCREREDYSPLIRVIGRVFSSAEALVQSFRKVKQHTKEELKSLQAKDEDKDEDEKEKAACSAAAMEEDSEASSSRIGDSSQGDNNLQKLGPDDVSVDIDAIRRVYTRLLSNEKIETAFLNALVYLSPNVECDLTYHNVYSRDPNYLNLFIIVMENRNLHSPEYLEMALPLFCKAMSKLPLAAQGKLIRLWSKYNADQIRRMMETFQQLITYKVISNEFNSRNLVNDDDAIVAASKCLKMVYYANVVGGEVDTNHNEEDDEEPIPESSELTLQELLGEERRNKKGPRVDPLETELGVKTLDCRKPLIPFEEFINEPLNEVLEMDKDYTFFKVETENKFSFMTCPFILNAVTKNLGLYYDNRIRMYSERRITVLYSLVQGQQLNPYLRLKVRRDHIIDDALVRLEMIAMENPADLKKQLYVEFEGEQGVDEGGVSKEFFQLVVEEIFNPDIGMFTYDESTKLFWFNPSSFETEGQFTLIGIVLGLAIYNNCILDVHFPMVVYRKLMGKKGTFRDLGDSHPVLYQSLKDLLEYEGNVEDDMMITFQISQTDLFGNPMMYDLKENGDKIPITNENRKEFVNLYSDYILNKSVEKQFKAFRRGFHMVTNESPLKYLFRPEEIELLICGSRNLDFQALEETTEYDGGYTRDSVLIREFWEIVHSFTDEQKRLFLQFTTGTDRAPVGGLGKLKMIIAKNGPDTERLPTSHTCFNVLLLPEYSSKEKLKERLLKAITYAKGFGML

Assays:
[1] = biological target: Recombinant human p18 (His-p18)

Molecule | levels of ubiquitinated p18 after Ube3a siRNA KD (His-ubiquitin pull-down assay) (Flag-p18) | in vitro ubiquitination of p18 (Western blot) [1]
endogenous Ube3a of COS-1 cells | 100.0±1.8 vs. 66.8±3.7 | –
B1 | – | p18 ubiquitination was only observed in the presence of Ube3a, ubiquitin, E1, E2, and ATP
